± gives the standard deviation.
Assay: protein stability index of a GFP-peptide fusion (GPS, HEK-293T) (PSI 1-6); higher = more stable
[1] = treatment: DMSO, c terminus: a fixed tail appended
[2] = treatment: MLN4924 1 uM, 8 h, c terminus: a fixed tail appended
[3] = treatment: DMSO, c terminus: native
[4] = treatment: MLN4924 1 uM, 8 h, c terminus: native
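Further: 24-mer peptide tiles fused after GFP, lentivirally expressed, FACS-sorted into six equal bins by GFP/DsRed ratio, decoded by Illumina sequencing, PSI is the read-weighted mean bin number.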

Sequence	protein stability index [1]	protein stability index [2]	protein stability index [3]	protein stability index [4]
ERYDPNIDQWSMLGDMQTAREGAG [KLHL12]	4.2 ± 0.25	4.33 ± 0.19	–	–
KRRRKSCQACRFMKCLKVGMLKEG [ESRRG]	2.67 ± 0.2	2.78 ± 0.25	–	–
VKMFYSFQDKRNLYLIMEFLPGGD [STK38L]	3.11 ± 0.85	3.29 ± 0.4	–	–
SQDLLPPPNPYPLPQEHSQIYHCT [TBX5]	4.02 ± 0.22	4.11 ± 0.22	–	–
SGCLRISIQKLSNESRYMIYEFWE [NECAB1]	2.21 ± 0.95	2.64 ± 0.82	–	–
TAEDSNDIYILPSDNSGQVSPPES [BCL2L13]	5.2 ± 0.26	5.21 ± 0.1	–	–
GELLGEARYYLVQGLIEDCQLALQ [KCTD13]	2.15 ± 0.64	2.3 ± 0.28	–	–
PATHLSPALAPVPRNSCITCPQCH [TRIM9]	3.82 ± 0.39	3.87 ± 0.23	–	–
TDKQPLSDAWTYCISKNEWIQFNH [KLHDC2]	2.5 ± 0.2	2.67 ± 0.27	–	–
VRFDGYVIDGATALWCAAGAGHFE [FEM1B]	2.91 ± 0.6	2.92 ± 0.64	–	–
GVNTVFHCASPPPSSNNKELFYRV [NSDHL]	2.53 ± 0.23	2.4 ± 0.1	–	–
RQSGDRRQLPPPPTPANEERRGGL [WAS]	5.42 ± 0.16	5.23 ± 0.068	–	–
RLLSYRGERVAARGYWGDIATGPF [DNAAF3]	2.18 ± 0.046	2.18 ± 0.34	–	–
GTTYLPGIVGLNNIKANDYANAVL [USP39]	2.47 ± 0.097	2.44 ± 0.23	–	–
EELAYLKKNHEEEMKEFSSQLAGQ [KRT15]	5.22 ± 0.41	5.05 ± 0.28	–	–
HKLQEEKAFREEMKIFREKIEDFR [CCDC70]	3.38 ± 0.3	3.61 ± 0.31	–	–
ARGEDRAGPQSPSPGAPPAAKPAR [TSPAN10]	5.1 ± 0.56	5.65 ± 0.097	–	–
AVNAHQWLDNPERWNKVKMVVSRE [SEPHS2]	3.02 ± 0.37	2.67 ± 0.3	–	–
FPNRTDQQCQYRWLRVLNPDLVKG [MYBL2]	2.4 ± 0.34	2.44 ± 0.53	–	–
AIFIMSLNKRHSSGDGNSKLKSE [MFSD9]	–	–	2.64 ± 0.27	2.22 ± 0.15
CKKGDPKHGKRKRGRPRKLSKEYW [ELF3]	3.56 ± 0.13	3.85 ± 0.22	–	–
IGSVEEQLAQLRCEMEQQSQEYQI [KRT16]	4.82 ± 0.15	4.85 ± 0.18	–	–
MEREFNNLLALGTDRKLDDGDDKV [PPFIA4]	5.47 ± 0.32	5.34 ± 0.58	–	–

Sequence	protein stability index [1]	protein stability index [2]	protein stability index [3]	protein stability index [4]
GLANGLQLLCPWAPLSGPQALMLP [VENTX]	2.01 ± 0.31	2.1 ± 0.36	–	–
QQIAMDPEEVKSLDSNGAGEKSEN [BCL2L13]	5.6 ± 0.45	5.63 ± 0.3	–	–
FFEKPDYDYLRKLFTDLFDRKGYM [CSNK1G3]	2.05 ± 0.58	2.5 ± 0.25	–	–
VPVSFIFIFTFVKKKKIGFYFEVC [PCDHGA10]	–	1.82 ± 0.39	–	–
TDKLVTPGKYFSAAEYHAQRLKAV [IQUB]	3.4 ± 0.21	3.19 ± 0.31	–	–
ISQMDSDQFIPIWTVANMEEIKKL [LARP4]	3.25 ± 0.19	3.32 ± 0.16	–	–
ENSICVGFKRDYYLIRVDGKGSIK [VPS39]	2.16 ± 0.54	2.35 ± 0.37	–	–
CLTLATAVVQLYLALPPGAEHWTK [WAS]	2.85 ± 0.87	2.77 ± 0.28	–	–
AVVKGIQSSGKVMYFSSLFPYVVL [SLC6A17]	3.09 ± 0.49	2.51 ± 0.028	–	–
WVGTGLAAALAGLVGLATAAFGHV [CPOX]	2.13 ± 0.37	2.16 ± 0.3	–	–
CIGQRRFHTMDELVEHYKKAPIFT [NCK2]	2.54 ± 0.2	2.65 ± 0.38	–	–
HCWDVAGAGIIVTEAGGVLMDVTG [IMPA1]	2.4 ± 0.25	2.52 ± 0.51	–	–
CQDSSGEVSCQCQLHPPRWYSRLQ	2.38 ± 0.28	2.81 ± 0.23	–	–
SSSINSPDRASGPEGSLSQTMAGS [FAM104A]	5 ± 0.16	5.04 ± 0.1	–	–
TEQAAEYVPEKVKKAEKKLEENPY [CSTF3]	5.52 ± 0.3	5.37 ± 0.14	–	–
YVKFDAVSGDYYPIIYFNDYWNLQ [CLPTM1]	2.78 ± 0.5	2.8 ± 0.64	–	–
ERLERAVSDRLAPGAPRGNPPKAS [MYCL]	4.84 ± 0.44	5.23 ± 0.26	–	–
SPGLSYASHTVGFTPPTSLTRAGM [CCDC6]	3.01 ± 0.12	3.37 ± 0.31	–	–
SGDDKNSNYFSMDSMEGKRSPYAG [TRIM29]	4.5 ± 0.25	4.61 ± 0.24	–	–
HEEERINIYCLNCEVPTCSLCKVF [TRIM55]	2.95 ± 0.39	3.16 ± 0.32	–	–
KINAWDLYYYMTQTEELKYSIDQE [NLN]	2.34 ± 0.3	2.19 ± 0.35	–	–
LASITETIQVHRRYWRSLRVMKVE [HDAC6]	2.42 ± 0.3	2.31 ± 0.16	–	–
FQAHRDKYEKLRGDVAIKLKFLEE [ARFIP2]	2.89 ± 0.45	3.15 ± 0.25	–	–

Sequence	protein stability index [1]	protein stability index [2]	protein stability index [3]	protein stability index [4]
IGKWFDFKLFFNGRPGIVAWTLIN [DHCR7]	2.56 ± 0.42	2.46 ± 0.18	–	–
ELEKIGSGEFGSVFKCVKRLDGCI [WEE1]	2.29 ± 0.25	2.35 ± 0.24	–	–
VKYPELVLEHSLDREEEAIHHLVL [PCDHGA10]	2.6 ± 0.096	2.63 ± 0.36	–	–
PLFTPQSPVTATLSDEDDGFVDLL [CDC25A]	4.65 ± 0.13	4.43 ± 0.38	–	–
QQNEDLRRMAESLRIPEGPIDQGP [FUT8]	4.96 ± 0.23	4.94 ± 0.17	–	–
TKLEERSRVKCDQYWPSRGTETHG [PTPRD]	3.97 ± 0.14	3.71 ± 0.54	–	–
LARGIHVAGILSLLLGTAYSFYLF [POMT2]	2.6 ± 0.62	2.65 ± 0.47	–	–
GNSRSAPPTRGPPPSYGGSSRYDD [RBMX]	4.94 ± 0.34	5.05 ± 0.15	–	–
GLETLFSKAQELGGAGREDPGLWS [ZSWIM9]	3.18 ± 0.5	3.39 ± 0.23	–	–
VNYTQGLWEKVMPSRYAAIYNGGV [SLC19A2]	2.33 ± 0.18	2.21 ± 0.47	–	–
LESPIDPQPLSFKEPPLLLGVLHP [APMAP]	3.43 ± 0.31	3.69 ± 0.24	–	–
EKSVLKEVSHPFLIRLFWTWHDER [PRKX]	2.56 ± 0.29	2 ± 0.32	–	–
GSKVTCRGLLEYFKAYIKIYQGED [ATL3]	2.31 ± 0.14	–	–	–
IARVADGLPLAASMQEDEQSGRDL [SEC22B]	5.24 ± 0.22	5.33 ± 0.15	–	–
MSYFGEHFWGEKNHGFEVLYHSVK [FCHO1]	2.59 ± 0.24	2.11 ± 0.16	–	–
LHAQLRDLTSSSSDELSWIIELLE [ELF3]	2.83 ± 0.22	2.99 ± 0.39	–	–
SPVVVEKSNSYPHQLYTSSSHHSH [KMT2E]	3.76 ± 0.1	3.82 ± 0.38	–	–
IVDFLTHHAQTSKTERINALELLG [FEM1C]	2.09 ± 0.14	2.18 ± 0.23	–	–
TTHFQSIPDAFWWAVVTMTTVGYG [KCNA4]	3.05 ± 0.88	2.96 ± 0.33	–	–
DGDKNNDGRIDFDEFLKMMEGVQ [TNNC2]	–	–	4.63 ± 0.43	4.54 ± 0.42
LEGEDAHLSSQQASGQSYSSREVF [KRT16]	5.04 ± 0.15	5.02 ± 0.1	–	–
GVLDALHVLEGLFRTDPEAKVKLV [ZSWIM9]	2.28 ± 0.23	2.25 ± 0.18	–	–
ASGSTQRQPPPPAPQHPQPGSQAL [FBXO28]	5.14 ± 0.27	5.12 ± 0.089	–	–

Sequence	protein stability index [1]	protein stability index [2]	protein stability index [3]	protein stability index [4]
GAHKDCQVAPLTHVFQRQKSELSD [TRIM55]	4.73 ± 0.34	4.83 ± 0.16	–	–
PVDLWACGVILYILLVGYPPFWDE [CAMK2A]	3.08 ± 0.1	2.56 ± 0.096	–	–
KLKNLRRKQRRRERWLQKQGKYSG [RNF180]	3.83 ± 0.33	3.93 ± 0.4	–	–
RDRVGHKSIPMRNLRARPAKCLS [SERPINB5]	–	–	2.34 ± 0.23	2.48 ± 0.24
FWDFAQGPLLDSLYWTKWYNNQSL [PKD2L1]	2.3 ± 0.77	2.76 ± 0.94	–	–
NVLSDLYAMGITECDNMLMLLSVS [SEPHS2]	2.93 ± 0.55	2.71 ± 0.42	–	–
QRQQLPVTFGNKQKVLGKALSLIR [BTBD1]	2.81 ± 1	2.2 ± 0.41	–	–
HSHPPEIKDQGGAGEGLVRSANGF [MAP2]	4.7 ± 0.14	4.76 ± 0.2	–	–
FRQFGYQDSPGPHEALSRLWELCH [ZNF396]	2.28 ± 0.28	2.31 ± 0.24	–	–
TVCDDKWDLVSASVVCRELGFGSA [LOXL2]	2.54 ± 0.49	2.7 ± 0.2	–	–
KALYETELADARRALDDTARERAK [LMNB1]	5.191 ± 0.038	5.22 ± 0.26	–	–
QQAGLLVTGEKEEPSRSASEADSE [PPEF2]	5.613 ± 0.041	5.56 ± 0.16	–	–
QGGELVVAYPYDLVRSPWKTQEHT [CPXM2]	2.58 ± 0.21	2.15 ± 0.25	–	–
KESLCAKEEKCQGKGDDSETDKNN [KCNA4]	5.62 ± 0.16	5.42 ± 0.1	–	–
KAVANMQGEMDRKCKQVKEKCKEE [ZMYND11]	5.14 ± 0.31	5.31 ± 0.3	–	–
LVSPSNNSKEDAFSGTDWMLEKMD [ATF4]	4.66 ± 0.26	4.64 ± 0.23	–	–
LGRMGKHEQALFIYVHILKDTRMA [VPS39]	2.89 ± 0.71	2.98 ± 0.78	–	–
LSRENIQSSLLETLYRNRSNLETI [PPEF2]	2.83 ± 0.39	2.64 ± 0.33	–	–
GMQMAEDSKSLKTHQTQPGIRRAR [NET1]	4.78 ± 0.36	4.69 ± 0.46	–	–
CKSGYHPTKSHSFRAMCQNGKLVY [CFHR2]	2.16 ± 0.18	2.38 ± 0.43	–	–

Source: the supplement of paper PMC10567573
